Substrate: Nc1ncnc2c1ncn2[C@@H]1O[C@H](COP(=O)(O)OP(=O)(O)OP(=O)(O)O)[C@@H](O)[C@H]1O
Test: purified protein
Assay type: biochemical, Homo sapiens
Conditions: Mg2+

B1: human DNA topoisomerase IIα (Homo sapiens) (protein)
chain: MEVSPLQPVNENMQVNKIKKNEDAKKRLSVERIYQKKTQLEHILLRPDTYIGSVELVTQQMWVYDEDVGINYREVTFVPGLYKIFDEILVNAADNKQRDPKMSCIRVTIDPENNLISIWNNGKGIPVVEHKVEKMYVPALIFGQLLTSSNYDDDEKKVTGGRNGYGAKLCNIFSTKFTVETASREYKKMFKQTWMDNMGRAGEMELKPFNGEDYTCITFQPDLSKFKMQSLDKDIVALMVRRAYDIAGSTKDVKVFLNGNKLPVKGFRSYVDMYLKDKLDETGNSLKVIHEQVNHRWEVCLTMSEKGFQQISFVNSIATSKGGRHVDYVADQIVTKLVDVVKKKNKGGVAVKAHQVKNHMWIFVNALIENPTFDSQTKENMTLQPKSFGSTCQLSEKFIKAAIGCGIVESILNWVKFKAQVQLNKKCSAVKHNRIKGIPKLDDANDAGGRNSTECTLILTEGDSAKTLAVSGLGVVGRDKYGVFPLRGKILNVREASHKQIMENAEINNIIKIVGLQYKKNYEDEDSLKTLRYGKIMIMTDQDQDGSHIKGLLINFIHHNWPSLLRHRFLEEFITPIVKVSKNKQEMAFYSLPEFEEWKSSTPNHKKWKVKYYKGLGTSTSKEAKEYFADMKRHRIQFKYSGPEDDAAISLAFSKKQIDDRKEWLTNFMEDRRQRKLLGLPEDYLYGQTTTYLTYNDFINKELILFSNSDNERSIPSMVDGLKPGQRKVLFTCFKRNDKREVKVAQLAGSVAEMSSYHHGEMSLMMTIINLAQNFVGSNNLNLLQPIGQFGTRLHGGKDSASPRYIFTMLSSLARLLFPPKDDHTLKFLYDDNQRVEPEWYIPIIPMVLINGAEGIGTGWSCKIPNFDVREIVNNIRRLMDGEEPLPMLPSYKNFKGTIEELAPNQYVISGEVAILNSTTIEISELPVRTWTQTYKEQVLEPMLNGTEKTPPLITDYREYHTDTTVKFVVKMTEEKLAEAERVGLHKVFKLQTSLTCNSMVLFDHVGCLKKYDTVLDILRDFFELRLKYYGLRKEWLLGMLGAESAKLNNQARFILEKIDGKIIIENKPKKELIKVLIQRGYDSDPVKAWKEAQQKVPDEEENEESDNEKETEKSDSVTDSGPTFNYLLDMPLWYLTKEKKDELCRLRNEKEQELDTLKRKSPSDLWKEDLATFIEELEAVEAKEKQDEQVGLPGKGGKAKGKKTQMAEVLPSPRGQRVIPRITIEMKAEAEKKNKKKIKNENTEGSPQEDGVELEGLKQRLEKKQKREPGTKTKKQTTLAFKPIKKGKKRNPWSDSESDRSSDESNFDVPPRETEPRRAATKTKFTMDLDSDEDFSDFDEKTDDEDFVPSDASPPKTKTSPKLSNKELKPQKSVVSDLEADDVKGSVPLSSSPPATHFPDETEITNPVPKKNVTVKKTAAKSQSSTSTTGAKKRAAPKGTKRDPALNSGVSQKPDPAKTKNRRKRKPSTSDDSDSNFEKIVSKAVTSKKSKGESDDFHMDFDSAVAPRAKSVRAKKPIKYLEESDEDDLF
In the case of B1, the Km is reported as 220 ± 60 µM.

Source: article PMC6844113
